Numbering of substitutions follows the chain as printed.
B1: iPS:327875 (bispecific antibody, human IgG1, kappa, N297G)
light 1: not shown
heavy 1: not shown
light 2: EIVLTQSPGTLSLSPGERATLSCRASQSVSSGYLTWYQQKPGQAPRLLIYGASSRATGIPDRFSGSGSGTDFTLTISRLEPEDFAVYYCQQYGNSLSRFGKGTKLEIKRTVAAPSVFIFPPSDEQLKSGTASVVCLLNNFYPREAKVQWKVDNALQSGNSQESVTEQDSKDSTYSLKSTLTLSKADYEKHKVYACEVTHQGLSSPVTKSFNRGEC
heavy 2: QVQLVESGGGVVQPGRSLRLSCAASGFTFSSYGMHWVRQAPGKELEWVAVIWYDGSNKYYAESVKGRFIISRDKSKNTLYLQMNSLRAEDTAVYYCARAGGIAAAGLYYYYGMDVWGQGTTVTVSSASTKGPSVFPLAPSSKSTSGGTAALGCLVKDYFPEPVTVSWNSGALTSGVHTFPAVLQSSGLYSLESVVTVPSSSLGTQTYICNVNHKPSNTKVDKKVEPKSCDKTHTCPPCPAPELLGGPSVFLFPPKPKDTLMISRTPEVTCVVVDVSHEDPEVKFNWYVDGVEVHNAKTKPCEEQYGSTYRCVSVLTVLHQDWLNGKEYKCKVSNKALPAPIEKTISKAKGQPREPQVYTLPPSRKEMTKNQVSLTCLVKGFYPSDIAVEWESNGQPENNYKTTPPVLKSDGSFFLYSKLTVDKSRWQQGNVFSCSVMHEALHNHYTQKSLSLSPGK
B2: iPS:327737 (bispecific antibody, human IgG1, kappa, lambda, N297G)
light 1: DIQLTQSPSFLSASVGDRVTITCRASQSIGRSLHWYQQKPGKAPKLLIKYASQSLSGVPSRFSGSGSGTEFTLTISSLQPEDFATYYCHQSSRLPFTFGEGTKVDIKRTVAAPSVFIFPPSDEQLKSGTASVVCLLNNFYPREAKVQWKVDNALQSGNSQESVTEQDSKDSTYSLESTLTLSKADYEKHKVYACEVTHQGLSSPVTKSFNRGEC
heavy 1: not shown
light 2: QSVLTQPPSVSAAPGQKVTISCSGSSSNIGNNYVSWYQQLPGTAPKLLIYDNNKRPSGIPDRFSGSKSGTSATLGITGLQTGDEADYYCGTWDSRLSAVVFGKGTKLTVLGQPKANPTVTLFPPSSEELQANKATLVCLISDFYPGAVTVAWKADGSPVKAGVETTKPSKQSNNKYAAKSYLSLTPEQWKSHRSYSCQVTHEGSTVEKTVAPTECS
heavy 2: QVQLVESGGGVVQPGRSLRLSCAASGFTFSSFGMHWVRQAPGKELEWVAVISFDGSIKYSVDSVKGRFTISRDNSKNTLFLQMNSLRAEDTAVYYCARDRLNYYESSGYYHYKYYGMAVWGQGTTVTVSSASTKGPSVFPLAPSSKSTSGGTAALGCLVKDYFPEPVTVSWNSGALTSGVHTFPAVLQSSGLYSLESVVTVPSSSLGTQTYICNVNHKPSNTKVDKKVEPKSCDKTHTCPPCPAPELLGGPSVFLFPPKPKDTLMISRTPEVTCVVVDVSHEDPEVKFNWYVDGVEVHNAKTKPCEEQYGSTYRCVSVLTVLHQDWLNGKEYKCKVSNKALPAPIEKTISKAKGQPREPQVYTLPPSRKEMTKNQVSLTCLVKGFYPSDIAVEWESNGQPENNYKTTPPVLKSDGSFFLYSKLTVDKSRWQQGNVFSCSVMHEALHNHYTQKSLSLSPGK
B3: iPS:327739 (bispecific antibody, human IgG1, kappa, lambda, N297G)
light 1: not shown
heavy 1: not shown
light 2: B2 light 2 with K103G
heavy 2: B2 heavy 2 with E44G, E370K
B4: iPS:327728 (bispecific antibody, human IgG1, kappa, lambda, N297G)
light 1: not shown
heavy 1: not shown
light 2: B2 light 2 with G75A, K103G
heavy 2: B2 heavy 2 with E44G, E105D, E370K
B5: iPS:327738 (bispecific antibody, human IgG1, kappa, lambda, N297G)
light 1: EIVLTQSPATLSLSPGERATLSCRASQSVGRSLHWYQQKPGQAPRLLIKYASQSLSGIPARFSGSGSGTDFTLTISSLEPEDFAVYYCHQSSRLPFTFGEGTKVDIKRTVAAPSVFIFPPSDEQLKSGTASVVCLLNNFYPREAKVQWKVDNALQSGNSQESVTEQDSKDSTYSLESTLTLSKADYEKHKVYACEVTHQGLSSPVTKSFNRGEC
heavy 1: not shown
light 2: B2 light 2
heavy 2: B2 heavy 2

Assays:
human CGRP receptor = human CGRP receptor (human, UniProt Q16602 23-461; O60894 27-148); assay: cell-based or functional assay
human PAC1 receptor = target: T1, human PAC1 receptor (human, UniProt P41586 21-468); assay: cell-based or functional assay
T1 sequence: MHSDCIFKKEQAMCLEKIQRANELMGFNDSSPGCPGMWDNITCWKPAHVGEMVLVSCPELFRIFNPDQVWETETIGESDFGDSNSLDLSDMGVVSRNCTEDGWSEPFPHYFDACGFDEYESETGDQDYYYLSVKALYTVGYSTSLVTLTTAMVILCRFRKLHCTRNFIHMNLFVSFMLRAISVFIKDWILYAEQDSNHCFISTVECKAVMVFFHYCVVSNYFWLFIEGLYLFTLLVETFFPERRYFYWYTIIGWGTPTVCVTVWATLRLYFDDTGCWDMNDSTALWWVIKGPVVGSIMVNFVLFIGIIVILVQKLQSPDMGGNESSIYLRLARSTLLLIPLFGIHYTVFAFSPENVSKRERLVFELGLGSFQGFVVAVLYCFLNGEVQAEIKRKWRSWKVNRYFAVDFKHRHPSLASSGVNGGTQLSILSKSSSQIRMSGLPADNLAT

Sequence of human CGRP receptor (Q16602 23-461 limits assumed, chain 1 of 2): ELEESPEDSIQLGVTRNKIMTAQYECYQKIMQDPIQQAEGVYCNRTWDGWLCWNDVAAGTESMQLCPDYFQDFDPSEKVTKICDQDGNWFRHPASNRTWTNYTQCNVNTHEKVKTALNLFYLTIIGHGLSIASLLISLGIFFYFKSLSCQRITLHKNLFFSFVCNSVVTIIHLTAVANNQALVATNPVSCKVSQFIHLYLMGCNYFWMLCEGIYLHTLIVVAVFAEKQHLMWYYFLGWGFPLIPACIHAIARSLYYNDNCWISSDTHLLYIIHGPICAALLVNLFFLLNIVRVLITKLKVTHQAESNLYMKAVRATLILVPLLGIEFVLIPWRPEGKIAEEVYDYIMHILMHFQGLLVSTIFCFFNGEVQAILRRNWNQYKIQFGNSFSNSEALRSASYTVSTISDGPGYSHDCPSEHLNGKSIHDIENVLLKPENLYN
Sequence of human CGRP receptor (O60894 27-148 limits assumed, chain 2 of 2): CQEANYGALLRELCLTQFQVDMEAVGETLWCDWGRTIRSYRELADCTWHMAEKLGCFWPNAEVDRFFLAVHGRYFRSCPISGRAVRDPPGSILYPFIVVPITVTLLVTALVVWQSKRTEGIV

Binder | % inhibition of human CGRPR (human CGRP receptor) [%] | % inhibition of human PAC1 (human PAC1 receptor) [%]
B1 | 83 | 10
B2 | 82 | 54
B3 | 79 | 76
B4 | 80 | 79
B5 | 85 | 93

Source: patent US20170306033A1 (Amgen, published 2017)
